Entries after “also recorded” stand apart in the source; their conditions may differ.
Tested on: LPS-treated C57BL/6 mice
Assay: Oropharyngeal LPS lung injury model in C57BL/6 mice treated with mut-sFasL
Assay type: in vivo, mouse
Settings: for pro-injury or pro-inflammatory effects: normal lungs / administered 24 hours after intratracheal LPS, any dose
Procedure: FIGS. 5A-E show the effects of mut-sFasL on markers of lung inflammation in LPS-treated mice. C57BL/6 mice received oropharyngeal instillations of either PBS or LPS, 2.5 μg/mL. Four hours later some of the mice received oropharyngeal instillations of PBS or mut-sFasL at concentrations of 10 and 100 ng/g and were euthanized 24 hours after the initial LPS/PBS instillations (“early” group). Other mice received the PBS or mut-sFasL (same dose range) 24 hours after LPS/PBS and were euthanized 48 hours after the original LPS instillation (“late” group). N=6 for the groups. In the “late” group, treatment with 100 ng/g mut-sFasL reduced BAL total cells (FIG. 5A), lung homogenate MPO activity (FIG. 5B), and the BAL concentrations of TNF-α, MIP-1β and MCP-1 (FIGS. 5C-E). Data were analyzed by 2-way ANOVA with Dunnet's post hoc analysis; comparisons made to 0 ng/mL for each condition. Data are reported as box plots, in which the box depicts the 25th to 75th percentiles and the lines the min to max range. *=P<0.05; **=P<0.01, ***P<0.001.
FIGS. 6A-D show the effects of mut-sFasL in LPS treated mice. C57BL/6 mice received oropharyngeal instillations of either PBS, or LPS, 2.5 μg/mL. Four hours later some of the mice received oropharyngeal instillations of PBS or mut-sFasL at concentrations of 10 and 100 ng/g and were euthanized 24 hours after the initial LPS/PBS instillations (“early” group). Other mice received the PBS or mut-sFasL (same dose range) 24 hours after LPS/PBS and were euthanized 48 hours after the original LPS instillation (“late” group). N=6 for all groups. […] The administration of mut-sFasL had no effect total BAL protein (FIG. 6B), BAL IgM (FIG. 6C) or total lung homogenate caspase 3/7 activity (FIG. 6D). Data are reported as box plots, in which the box depicts the 25th to 75th percentiles and the lines the min to max range. Data were analyzed by 2-way ANOVA with Dunnett's post hoc analysis; comparisons were made to 0 ng/mL for each condition.
Animal studies. Mice were housed in conventional cages with ad libitum access to tap water and standard chow, in humidity-controlled (50%) and temperature-controlled (22° C.-23° C.) rooms with 12 hours/12 hours light/dark cycles. In the morning, male C57BL/6J mice (Jackson Laboratories, Bar Harbor Me.) weighing […] were anesthetized with 4% inhaled isoflurane and randomized to treatment for one oropharyngeal instillations of either PBS, or LPS, 2.5 μg/mL (Sigma-Aldrich, St. Louis Mo.) (Time=0 hr). The PBS group was instilled first to avoid cross-contamination with LPS. The mice were allowed to recover from anesthesia, given full access to food and water. […] Some of the mice received oropharyngeal instillations of mut-sFasL at 4 hr and were euthanized at 24 hr (“early” group). Other mice received oropharyngeal mut-sFasL at 24 hours and were euthanized at 48 hr (“late” group). In both cases, mut-sFasL doses were 0, 30 and 100 ng/mL. The number of mice used per group was 6, and the total number of mice was 54.
Following instillations, the mice were monitored for signs of discomfort every 15 minutes during the first hour, and then every four hours during daytime. The primary monitoring parameters were loss of prone posture, loss of movement with mild physical stimulation, weight loss of >20% (weight was measured once per day) and severe respiratory distress. Secondary monitoring parameters included ruffled fur, nasal or ocular discharge and an abnormal respiratory pattern. The presence of one major parameter or two minor parameters was considered an indication for euthanasia, but no mice met these criteria. […]

[1] = LPS, 24 hr (early group), mut-sFasL 30
[2] = LPS, 24 hr (early group), mut-sFasL 100
[3] = LPS, 48 hr (late group), mut-sFasL 30
[4] = LPS, 48 hr (late group), mut-sFasL 100

B1: mut-sFasL: mutant sFasL molecule in which 8 charged amino acids in the 26 amino acid stalk region were changed to alanine (protein)
chain: QLFALQAALAALAASTSQMATASSLAKQIGHPSPPPEKKELRKVAHLTGKSNSRSMPLEWEDTYGIVLLSGVKYKKGGLVINETGLYFVYSKVYFRGQSCNNLPLSHKVYMRNSKYPQDLVMMEGKMMSYCTTGQMWARSSYLGAVFNLTSADHLYVNVSELSLVNFEESQTFFGLYKL
- BAL cytokine concentration IL-1β [1]: 14.3 ± 10.6
- BAL cytokine concentration KC [1]: 118.4 ± 43.7
- BAL cytokine concentration MIP-1α [1]: 47.9 ± 10.6
- BAL cytokine concentration MIP-2 [1]: 78.0 ± 28.1
- BAL cytokine concentration IL-1β [2]: 18.6 ± 5.5
- BAL cytokine concentration KC [2]: 154.4 ± 94.3
- BAL cytokine concentration MIP-1α [2]: 85.3 ± 20.0
- BAL cytokine concentration MIP-2 [2]: 124.1 ± 29.1
- BAL cytokine concentration IL-1β [3]: 37.8 ± 23.3
- BAL cytokine concentration KC [3]: 113.2 ± 55.8
- BAL cytokine concentration MIP-1α [3]: 154.5 ± 78.7
- BAL cytokine concentration MIP-2 [3]: 146.7 ± 72.7
- BAL cytokine concentration IL-1β [4]: 44.5 ± 23.1
- BAL cytokine concentration KC [4]: 136.9 ± 51.9
- BAL cytokine concentration MIP-1α [4]: 153.9 ± 42.4
- BAL cytokine concentration MIP-2 [4]: 135.7 ± 29.9
- BAL IgM (LPS-induced increase): did not affect; also recorded: had no effect
- BAL total protein (LPS-induced increase): did not affect; also recorded: had no effect
- lung homogenate caspase-3/7 activity (LPS-induced increase): did not affect; also recorded: had no effect
- BAL IL-1β (in words) (LPS-treated mice): increase
- BAL KC (in words) (LPS-treated mice): not affected
- BAL MIP-1α (in words) (LPS-treated mice): increase
- BAL MIP-2 (in words) (LPS-treated mice): not affected
- weight loss (LPS-treated mice, percent change from initial weight): not affected; also recorded: Weight loss was similar regardless of treatment
- BAL cytokine concentration IL-1β (PBS group, mut-sFasL 30): 0.2 ± 0.0
- BAL cytokine concentration KC (PBS group, mut-sFasL 30): 1.2 ± 0.6
- BAL cytokine concentration MIP-1α (PBS group, mut-sFasL 30): 0.08 ± 0.03
- BAL cytokine concentration MIP-2 (PBS group, mut-sFasL 30): 0.1 ± 0.0
- BAL cytokine concentration IL-1β (PBS group, mut-sFasL 100): 0.2 ± 0.1
- BAL cytokine concentration KC (PBS group, mut-sFasL 100): 1.9 ± 0.9
- BAL cytokine concentration MIP-1α (PBS group, mut-sFasL 100): 0.29 ± 0.28
- BAL cytokine concentration MIP-2 (PBS group, mut-sFasL 100): 2.3 ± 2.8
- lung apoptosis or permeability measurements (PBS-treated mice): did not lead to an increase in lung apoptosis or permeability measurements
- effect of early administration (early group (mut-sFasL 4 hours after LPS, euthanized 24 h)): no measurable effect
- BAL concentration of MCP-1 (late group): decrease; also recorded: reduced
- BAL concentration of MIP-1β (late group): decrease; also recorded: reduced
- BAL concentration of TNF-α (late group): decrease; also recorded: reduced
- BAL total cell counts (late group (mut-sFasL 24 h after LPS, euthanized 48 h), 100 ng/mL, 100 ng/g): decreased; also recorded: reduced
- total lung (homogenate) MPO activity (late group, doses of 30 and 100 ng/mL, 100 ng/g): significantly decreased; also recorded: reduced
- pro-injury or pro-inflammatory effects: did not have important pro-injury or pro-inflammatory effects at any dose
- pro-injury or pro-inflammatory effects (listed as sFasL with mutated stalk region): not injurious in normal lungs

From patent publication US20220002363A1, “COMPOSITIONS AND METHODS FOR TREATING PULMONARY DISEASE” (United States Government As Represented By The Department …, priority 2020, published 2022)
